The supplement of paper PMC12042874
± gives the uncertainty stated by the source.

assay: amyloid nucleation score (Sup35N fusion, yeast selection) (log enrichment); library NNK2; higher = more nucleation; inactive = no reads after selection
Method in brief: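 In psi-negative yeast, Sup35N fusions carrying peptides of 20 random codons were induced with 100 μM copper sulfate for 24 hours. The cells then grew 7 days at 30°C on medium lacking adenine and uracil, and plasmid inserts from input and output were Illumina-sequenced, excluding sequences with under 100 input reads. Nucleation score is the DiMSum log enrichment of output over input reads, centred on the mode score of non-aggregating sequences.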

Row | Substance | amyloid nucleation score
1 | GKKTAGDIRCWWRWSLGCSP | 0.731 ± 0.57
2 | YVVSQTVRWF | inactive
3 | LYWRKTVITIEWSCSGGNLR | 0.278 ± 0.27
4 | SFINVLDQRVILRPPTRVFV | 0.494 ± 0.65
5 | GNRLRIKLL | -0.2 ± 0.27
6 | DIHRPQRYISKYSSTREWVG | -0.224 ± 0.32
7 | VDGVSLSGEFFNTIVNNFCI | 6.08 ± 0.062
8 | CRNQMQGWWYVWMVGVCRGS | inactive
9 | KLSIWGLRGVVGAWRCHTGY | inactive
10 | VAPTETRVDPIPSVGPVPGA | 1.66 ± 0.34
11 | KRNMSCVLYIWDWHPASLLM | inactive
12 | SSKKCDNRGLMLWVRGILVA | -0.059 ± 0.24
13 | WWYRLLWDKSCL | -1.06 ± 0.49
14 | KLKSDLMNRTVGDLPVRARP | 5.105 ± 0.048
15 | RVRKNCRFWSNCSCIVMVGR | 5.07 ± 0.059
16 | LCGWHD | 0.733 ± 0.47
17 | LFPLHFCNEHIMRLIKKLTG | 0.579 ± 0.8
18 | FIRNYWSVYGRWSANIFDDL | 0.48 ± 0.45
19 | LLNGPVYFFNLWVHGAC | 8.126 ± 0.052
20 | VRPFECGFTLPVWGG | 0.923 ± 0.81
21 | RVSCNRVRVYCWLVWRLIPN | inactive
22 | LRDLLLVRTSSCDSYMWLSP | -0.254 ± 1
23 | HLDLDPPM | 0.284 ± 1.1
24 | LFGHLVLYYPFSSTINCVVV | 5.59 ± 0.056
25 | IRCGREGLRR | inactive

Row | Substance | amyloid nucleation score
26 | ILLLFVPSDFRNICFE | -0.532 ± 0.29
27 | CRQISGNTNVRLGASSMRII | -0.526 ± 0.55
28 | SFAHEDWHTLFLL | -1.32 ± 0.75
29 | TEMWFDGRNSRMIQAH | 0.081 ± 0.36
30 | HIHSKQIRVFNFSNFLEQIY | 6.113 ± 0.033
31 | ARLKLDRRPMKSSMVCIHSA | 6.16 ± 0.089
32 | WRKCKLFFTLYHLHTVELWI | -0.826 ± 0.49
33 | RYSITGTYYIA | 3.63 ± 0.057
34 | TLDFCEL | inactive
35 | CRRGDLKDDEIYAMHLHRVS | -1.12 ± 0.78
36 | HEHSDVRKKVGWMAFWR | 4.42 ± 0.06
37 | IDFVVFFT | 1.09 ± 0.27
38 | QNYRNSGVKLHTRRIISCNV | -0.526 ± 0.36
39 | KLTLLKTL | inactive
40 | HVNYWGRLCMKKRCNVDVNH | 5.634 ± 0.043
41 | AAKDSAWFHAIWVKKVRREV | 1.01 ± 0.68
42 | RSWKLGVDGWPLMSEFP | 1.64 ± 0.29
43 | CSVCYFPEGNLFNGE | inactive
44 | TNRRILSFGVNL | -0.427 ± 0.78
45 | FVRHTHFG | -1.21 ± 1.1
46 | SETYTLIRARYIMV | -1.24 ± 0.75
47 | SIVLSDGLGS | 0.044 ± 1.1
48 | SFNDESGFLLSSGYPISFKR | inactive
49 | SWLIDLTRHSFLI | -1.25 ± 0.78
50 | NLGHTCVCFKRIRSYFFSYR | -0.94 ± 0.49

Row | Substance | amyloid nucleation score
51 | NTLEPWMKYSMCLFDKISPT | -0.391 ± 0.49
52 | GAGPEEPDSLDEVIVT | 0.202 ± 0.3
53 | NLDEQGFAVSWETVLLWSEE | -0.005 ± 0.5
54 | PYSFSV | inactive
55 | NTRCQFSTIGHFAASHDRRD | 1.17 ± 0.21
56 | TKMVCSKRMFVECVLNLF | 0.221 ± 0.31
57 | IILTVNRRMDLEGYFYFMFE | -0.93 ± 1
58 | GVAGFDTSDNETG | 0.543 ± 0.33
59 | SKARGLCFLSVLLFISDQST | -1.78 ± 1.1
60 | WYSIIREEAALSYCSSHYKN | 2.49 ± 0.15
61 | QNGAALRLIGIWGNGGCK | -0.003 ± 1.1
62 | LSSPDVPNIHAALRTRTGWA | -0.328 ± 0.27
63 | SLETFNVTPCRDVT | -0.633 ± 1.1
64 | NYIMWLWQQTGWSNGWCALI | 0.312 ± 0.61
65 | MIHQIELNDIGWVLTTFCNE | -0.536 ± 1
66 | GYYAPIPLKCVDSEASLRYR | 0.308 ± 0.36
67 | NYMRYTYHSMCVLWFTVGEC | 0.864 ± 0.41
68 | LCHEQLCGFRMFCYSHGR | 3.58 ± 0.11
69 | SWMSGVVITETHTALGSWVN | 0.442 ± 0.37
70 | VHFMIMQNSNCYCVKHIDFM | 9.425 ± 0.04
71 | YFKMSFCSFWL | 1.91 ± 0.091
72 | ELVGYNVVGAIGSQ | -0.022 ± 0.26
73 | GAMTSMDVCL | -0.062 ± 0.65
74 | AVVFSNCGCFSMKFYMVVAT | -2.06 ± 0.48
75 | WGETVLYSDY | -1.01 ± 1

Row | Substance | amyloid nucleation score
76 | CARSWLRVLGTSPEKMKG | 0.627 ± 0.74
77 | ECTYNKSWHQTWVTTRHGSS | 0.613 ± 0.23
78 | MGENVLGRQGVLPKGEI | 0.192 ± 0.45
79 | GKQYPFHFI | -0.583 ± 1.1
80 | GVMYSLFRNSSWGGHIMSGK | 0.818 ± 0.67
81 | YLSTFVGTVHDSHTCRFCWN | 3.79 ± 0.13
82 | PHHWTQWSVKMSGFRSLLRR | 1.19 ± 0.13
83 | VDPHFFIRLFLEYHNVMSWY | inactive
84 | KGGLRISSLVTYM | 0.274 ± 1.1
85 | KVRLSDIPSLAMICFKRDIN | inactive
86 | RYGVRTSAPNMQWLFAGWS | 0.613 ± 0.74
87 | LSSPLNLQHVFPLTWMYLC | -0.742 ± 1.1
88 | NMIYYMFEYAWPCIVER | 7.37 ± 0.08
89 | FMDRFLSWFCHE | 1.26 ± 0.37
90 | SSGTCTSHSLVLIHMGLRYV | -0.54 ± 0.54
91 | ECVRTLFYKLMTFAWLELRS | -1.02 ± 0.76
92 | NFNHVSEI | inactive
93 | IDFKHVL | -0.964 ± 0.39
94 | NLDGIVRMTN | -0.543 ± 0.56
95 | YSRTQENNAGLSYIACTGRR | 0.168 ± 0.56
96 | RSQIPNYYWQYMLVYSYLQG | 0.201 ± 0.74
97 | EYSYVVGMFREIVDTRTVFV | 0.107 ± 0.2
98 | RDMGPLVNAPVA | 0.282 ± 0.46
99 | WELKAHVDV | 0.737 ± 0.54
100 | FHLLVVNFDTSLPLRQWKLE | 0.059 ± 0.3

Row | Substance | amyloid nucleation score
101 | WIDLNRRRREAL | -0.125 ± 0.34
102 | FGSIFNSYVNEWRSLLCNID | -1.67 ± 0.39
103 | REFLIYFCFQIMCCRTYGPA | 5.125 ± 0.046
104 | YCTSDG | 0.559 ± 0.8
105 | TRPVNLDLIFISSG | 2.92 ± 0.098
106 | LTIPEMNQGLQLSLSIHAQM | -0.902 ± 0.63
107 | SAMLDRFYGVRFTMFCRAEH | 0.299 ± 0.61
108 | VYFELVPVGTYL | -0.214 ± 1
109 | PTSFLKSIVGVIWISANLSR | 0.696 ± 0.43
110 | GNIGYCKRSFSGLQLVGCAR | -0.464 ± 0.78
111 | CYTNYIYVLAAMWTSEIRKV | inactive
112 | NLHLGMEFTCELRCYWIRLP | 0.279 ± 0.5
113 | VSNAGSSTKDILGIHRS | -0.06 ± 1.1
114 | SRKNRSRVSTTISR | -0.731 ± 0.3
115 | SCSRWHYESSYLYIDTLEDY | 0.347 ± 0.55
116 | ITKNHSVDDRCTMMYFYLCV | 3.76 ± 0.093
117 | RFGFRSGPTSSRMWYSFLEF | 3.15 ± 0.11
118 | IRLTSAYLHSDVWGVMQWNK | 4.823 ± 0.041
119 | QQKPVLGLCFWERAGHLSNR | inactive
120 | FRFVEFNNSGNVCPLIFTLS | -0.266 ± 0.65
121 | GGGGCSSDFTQKTPPGQAKA | -0.102 ± 0.36
122 | HHRGMIMLHNINYLRSFNAT | -0.465 ± 0.44
123 | SFRSMIQQSAAGFYSSFIST | -1.89 ± 1.1
124 | PTMHVRVSG | 0.495 ± 0.28
125 | SGSGNLFA | -0.545 ± 0.45

Row | Substance | amyloid nucleation score
126 | IIMFRVYVM | -0.964 ± 0.76
127 | YHITSSLWVDDIHVLLNMGP | 0.328 ± 0.42
128 | RLMFLVFSESSKYSALHMWG | 0.939 ± 0.19
129 | NHLLMGGGHKDAVGQSVFGI | 0.074 ± 0.74
130 | LRNVRMYDLSLWSRGTRCEG | 0.88 ± 0.28
131 | EGSLPLGRSSCPGTLHDGMI | 0.922 ± 0.34
132 | HTHTWT | 1.31 ± 0.38
133 | WTFEFLIRVLEWRSVMFFAG | inactive
134 | IKSVRTWGSLESA | -0.073 ± 0.34
135 | DCRIVREHLPCPSFFRSFSR | 0.164 ± 1.1
136 | SGGHKWVYFASCISFLRPWR | -0.069 ± 0.55
137 | TNVLYMLWTFKVDERY | 5.964 ± 0.049
138 | VIYLIGSHYTLVSNRLYEIG | 8.186 ± 0.08
139 | YITFLVWFQNFGYTGHD | 7.162 ± 0.062
140 | SSMIMTGFLYTYYGVIRVVD | inactive
141 | DWNTWTSNFLALTGAWTGLG | 0.062 ± 0.77
142 | SQWSCVRTSFGPPMYKWFDL | 5.655 ± 0.045
143 | YTRNIHMHFHRMLPNVGMAF | inactive
144 | STLNSYS | -0.42 ± 0.61
145 | EYSGLDVTDCQDT | 0.44 ± 0.36
146 | LNSMF | 0.056 ± 0.31
147 | RYSRFSDQSMFSRPYA | 0.333 ± 0.31
148 | KLWETRACFVTCR | 0.362 ± 0.4
149 | RNAKMMTSSLVYNWFVFAER | 5.353 ± 0.045
150 | KSISVSLLVEGAVVSLSAYI | 4.21 ± 0.11

Row | Substance | amyloid nucleation score
151 | KNNIWVIYPFVNG | 6.434 ± 0.064
152 | ILRSRGERISASY | 2.97 ± 0.14
153 | PSNKYSDVPSNAQSGFAWYG | 0.56 ± 0.57
154 | QHKDLYLW | inactive
155 | FRVIYDRHTGILRSHERAKG | -0.551 ± 0.35
156 | CNILH | 1.36 ± 0.3
157 | PRNRQRSNSTDCGHLITYWD | 0.205 ± 0.62
158 | NFNYFGWISQEIPPLLAGLS | -0.509 ± 1.1
159 | EAKFGKLKGYKCTVTGECSC | -0.391 ± 0.36
160 | VFCSSRFCIEECGC | -0.453 ± 0.64
161 | AEYKRGKEGSPLAIWWQLDP | 2.34 ± 0.13
162 | DMRTIGEHCW | 1.02 ± 0.52
163 | FTLKINVPETGTIVLPELGS | 0.235 ± 0.48
164 | AVDSHVIYSV | -0.96 ± 0.45
165 | ISYKAWMFRGRMNSVGISRY | -0.299 ± 0.63
166 | KGNHRRVKTSIYNFFKVSNC | 0.445 ± 0.29
167 | QYVSLYAVKRIVEIVQDKCA | 0.012 ± 0.39
168 | SDGQGHYVIQRTLWVTWSFR | -0.707 ± 0.76
169 | FVLHIMRLSCYCE | -0.29 ± 0.45
170 | WKSLTGYIRLIFRNFWTSHD | inactive
